{"source": "paper PMC7246297", "binders": {"B1": {"name": "N Aptamer 1 (88 nt) (ssDNA)", "DNA": "GCAATGGTACGGTACTTCCGGATGCGGAAACTGGCTAATTGGTGAGGCTGGGGCGGTCGTGCAGCAAAAGTGCACGCTACTTTGCTAA"}, "B2": {"name": "Aptamer n.c. (33 nt) (ssDNA)", "DNA": "GCAATGGTACGGTACTTCCGGATGCGGAAACTG"}, "B3": {"name": "N Aptamer 3 (57 nt) (ssDNA)", "DNA": "GCAATGGTACGGTACTTCCGGATGCGGAAACTGGCTAATTGGTGAGGCTGGGGCGGT"}, "B4": {"name": "N Aptamer 2 (78 nt) (ssDNA)", "DNA": "GCAATGGTACGGTACTTCCGGATGCGGAAACTGGCTAATTGGTGAGGCTGGGGCGGTCGTGCAGCAAAAGTGCACGCT"}}, "assay_in_all_cases": "ELAA", "key": {"Nucleocapsid (N) protein": {"molecular_target": "Nucleocapsid (N) protein (SARS-CoV-2, UniProt P0DTC9 1-419)"}, "[1]": {"molecular_target": "3C-like protease (3CLpro) (SARS-CoV-2, UniProt P0DTD1 3264-3569)"}, "[2]": {"molecular_target": "Spike receptor-binding domain (S-RBD-Fc) (SARS-CoV-2, UniProt P0DTC2 319-541)"}}}
{"binder": "B1", "values": [{"measurement": "binding result", "setting": "Nucleocapsid (N) protein", "value": "binds"}]}
{"binder": "B2", "values": [{"measurement": "binding result", "setting": "Nucleocapsid (N) protein", "value": "no binding"}, {"measurement": "binding result", "setting": "[1]", "value": "no binding"}, {"measurement": "binding result", "setting": "[2]", "value": "no binding"}]}
{"binder": "B3", "values": [{"measurement": "binding result", "setting": "Nucleocapsid (N) protein", "value": "binds"}]}
{"binder": "B4", "values": [{"measurement": "binding result", "setting": "Nucleocapsid (N) protein", "value": "binds"}]}
